Four molecules from patent US20240390512A1, “METHODS OF TREATING CHEMOTHERAPY-RESISTANT CANCER WITH AN ANTIBODY-DRUG CONJUGATE” (DAIICHI SANKYO COMPANY, LIMITED, priority 2021, published 2024) can be followed below.

Numbering of substitutions follows the chain as printed.

T1: human CDH6 (full-length and EC domain deletion mutants) (Homo sapiens, UniProt P55285)
T1 construct: each one of the five EC domains could be deleted from full-length human CDH6; 3xFLAG (deletion mutants only, from the vector p3×FLAG-CMV-9); expressed in transfected cells; host or cells: 293α cells
T1 sequence (P55285 160-790): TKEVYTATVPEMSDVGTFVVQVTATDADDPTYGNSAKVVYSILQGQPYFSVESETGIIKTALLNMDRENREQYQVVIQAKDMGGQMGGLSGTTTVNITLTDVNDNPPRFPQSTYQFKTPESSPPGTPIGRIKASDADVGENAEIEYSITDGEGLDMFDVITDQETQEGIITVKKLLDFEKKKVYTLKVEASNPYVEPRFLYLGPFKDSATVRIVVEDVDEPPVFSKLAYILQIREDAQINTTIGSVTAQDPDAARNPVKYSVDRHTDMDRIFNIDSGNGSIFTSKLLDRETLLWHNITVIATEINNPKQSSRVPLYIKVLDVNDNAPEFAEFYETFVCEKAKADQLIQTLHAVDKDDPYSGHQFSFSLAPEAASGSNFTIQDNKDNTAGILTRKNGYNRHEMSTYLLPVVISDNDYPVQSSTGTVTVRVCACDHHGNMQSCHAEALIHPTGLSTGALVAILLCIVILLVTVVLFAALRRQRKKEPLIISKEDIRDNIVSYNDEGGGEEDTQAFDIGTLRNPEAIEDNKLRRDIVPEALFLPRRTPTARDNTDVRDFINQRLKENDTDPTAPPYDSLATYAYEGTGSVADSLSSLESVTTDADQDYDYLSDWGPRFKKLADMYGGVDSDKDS

T2: human CDH6 (full-length and EC domain deletion mutants) (Homo sapiens, UniProt P55285, DEL160-268)
T2 construct: each one of the five EC domains could be deleted from full-length human CDH6; 3xFLAG (deletion mutants only, from the vector p3×FLAG-CMV-9); expressed in transfected cells; host or cells: 293α cells
T2 sequence (P55285 with tags, fused parts or gaps DEL160-268): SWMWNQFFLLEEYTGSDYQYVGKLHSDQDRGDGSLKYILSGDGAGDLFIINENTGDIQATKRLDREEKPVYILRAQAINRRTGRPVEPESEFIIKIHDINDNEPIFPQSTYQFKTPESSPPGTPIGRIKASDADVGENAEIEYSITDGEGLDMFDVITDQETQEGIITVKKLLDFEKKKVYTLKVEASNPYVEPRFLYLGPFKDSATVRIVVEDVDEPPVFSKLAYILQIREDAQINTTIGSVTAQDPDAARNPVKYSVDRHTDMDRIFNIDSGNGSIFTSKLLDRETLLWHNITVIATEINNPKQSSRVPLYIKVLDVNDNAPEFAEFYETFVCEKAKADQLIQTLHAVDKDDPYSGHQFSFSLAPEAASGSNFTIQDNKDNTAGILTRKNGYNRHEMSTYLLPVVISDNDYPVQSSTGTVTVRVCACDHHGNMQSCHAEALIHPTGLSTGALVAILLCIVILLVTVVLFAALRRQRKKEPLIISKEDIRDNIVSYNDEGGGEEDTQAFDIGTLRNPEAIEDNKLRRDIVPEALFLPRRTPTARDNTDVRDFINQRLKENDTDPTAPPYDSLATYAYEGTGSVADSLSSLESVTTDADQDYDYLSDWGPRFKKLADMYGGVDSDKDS

B1: rG019: rat anti-human CDH6 monoclonal antibody produced by hybridoma rG019; variable regions SEQ ID NO: 10 and 15 (antibody, listed as Rattus norvegicus, V domains shown)
VL: DIQMTQSPSLLSASVGDRVTLNCKASQNIYKNLAWYQQKLGEGPKLLIYDANTLQTGIPSRFSGSGSGSDFTLTISSLQPEDVATYFCQQYYSGWAFGGVTNLELKRA
VH: QVQLQQSGAELVKPGSSVKISCKASGYTFTRNFMHWIKQQPGNGLEWIGWIYCGDGETEYNQKFNGKATLTADRSSSTAYMELSRLTSEDSAVYFCARGVYGGFAGGYFDFWGQGVMVTVSS
B2: rG055: rat anti-human CDH6 monoclonal antibody produced by hybridoma rG055; variable regions SEQ ID NO: 20 and 25 (antibody, listed as Rattus norvegicus, V domains shown)
VL: DVQMTHSPSYLAASPGESVSISCKTSKNISNYLVWYQQKPGEAYKLLIYSGSTLQSGTPSRFSGSGSGTDFTLTIRSLEPEDFGLYFCQQYYEKPFTFGSGTKLEIKRA
VH: EVQLQESGPGLVRPSQSLSLSCSVTDYSITSNYWGWIRRFPGNKMEWMGYITYSGYTSYNPSLQSRISITRDTSKNQFFLQLNSVTAEDTATYYCARSINHGGYSYVVDAWGPGASVTVSS
B3: rG061: rat anti-human CDH6 monoclonal antibody produced by hybridoma rG061; variable regions SEQ ID NO: 40 and 45 (antibody, listed as Rattus norvegicus, V domains shown)
VL: B2 VL with H6Q, T25A, S26T, N28S, V34A, L46V, F87S, F96L
VH: EVQLQESGPGLVKPSQSLSLTCSVTGYSITTYYWGWIRKFPGNKMEWMGYISYSGRTSYNPSLKSRMSITRDASKNQFFLQLNSVTTDDTATYYCARSPINHGGYWYFDFWGPGTMVTVSS
B4: rG056: rat anti-human CDH6 monoclonal antibody produced by hybridoma rG056; variable regions SEQ ID NO: 30 and 35 (antibody, listed as Rattus norvegicus, V domains shown)
VL: DVQMTQSPSSLAASPGESVSISCRATKSIGIYLAWYQQKPGKTFKLLIYSGSTLQSGTPSRFSGSGSGTDFTLTIRSLEPEDFGLYFCQQFYENPFTFGSGTKLEIRRA
VH: EVQLQESGPGLVKPSQSLSLTCSVTDYSITTYFWGWIRKFPGNKMEWMGYMSYRGGTSYNPSLKSRISITRDTSKNQFFLQLNSVTTEDTATYYCARCPNYGGHSLVFDYWGQGVMVTVSS

For the first experiment, the target named is T1, human CDH6 (full-length and EC domain deletion mutants). The experiment can be described thus: Epitope analysis of rat anti-CDH6 antibody by flow cytometry using domain deletion mutants. To be noted: flow cytometry; transfected 293α cells; antibody 20 nM. The experiment is classed as binding. From the text:
(§1) The full-length extracellular region of human CDH6 has five extracellular domains, EC1 (SEQ ID NO: 2), EC2 (SEQ ID NO: 3), EC3 (SEQ ID NO: 4), EC4 (SEQ ID NO: 5), and EC5 (SEQ ID NO: 6). A gene to be expressed such that each one of the five EC domains could be deleted from full-length human CDH6 was synthesized by GeneArt, and incorporated into p3×FLAG-CMV-9 vectors for mammalian expression (Sigma-Aldrich Co. LLC) according to a method known to a person skilled in the art in order to produce an expression vector for each domain deletion mutant lacking any one of EC1 to EC5.
(§2) The epitopes to which the rat anti-human CDH6 antibodies bound were identified by flow cytometry analysis using a 293α cell line transfected with each EC domain deletion vector. Using Lipofectamine 2000 (Thermo Fisher Scientific Inc.), each domain deletion mutant expression vector produced in Reference Example 2)-2-1, or pcDNA3.1-hCDH6 for the expression of full-length human CDH6 was transiently introduced into a 293α cell line, which was a cell line derived from HEK293 cells by stable transfection with integrin αv and integrin […] expression vectors. The cells were cultured overnight under conditions of 37° C. and 5% CO2, and thereafter, a cell suspension was prepared. The suspension of the transfected 293α cells was centrifuged, and a supernatant was then removed. Thereafter, the cells were suspended by the addition of each of the 4 rat anti-CDH6 monoclonal antibodies (clone Nos: rG019, rG055, rG056 and rG061), which had been prepared in Reference Example 1)-7, or rat IgG control (R&D Systems, Inc.) (final concentration: 20 nM). The cells were left standing at 4° C. for 1 hour. The cells were washed twice with PBS supplemented with 5% FBS, and then suspended by the addition of Anti-Rat IgG (whole molecule)-FITC antibody produced in rabbit (Sigma-Aldrich Co. LLC) that had been 50-fold diluted with PBS supplemented with 5% FBS. The cells were left standing at 4° C. for 1 hour. The cells were washed twice with PBS supplemented with 5% FBS, followed by detection using a flow cytometer (Canto II; BD Biosciences). The data was analyzed using FlowJo (Tree Star, Inc.). In the histograms of FIGS. 2-1 to 2-6, the abscissa depicts FITC fluorescence intensity indicating the amount of the antibody bound, and the ordinate depicts cell count. […] Fluorescence intensity is enhanced when the antibody binds to full-length hCDH6 or each EC domain deletion mutant on the surface of cells. The rat IgG control binds to none of the transfected cells.
A general note: Flow cytometry measures light scatter and fluorescence of single cells or particles in a stream.
For the molecule B1, the “binding to EC1 deletion mutant” value is on record as “bind”.
As to B2, the “binding to EC1 deletion mutant” value is given as “bind”.
Turning to B3, the “binding to EC1 deletion mutant” value is “bind”.
On to B4, for which the “binding to EC1 deletion mutant” value was “bind”.

In a further experiment the target is T2, human CDH6 (full-length and EC domain deletion mutants). The experiment is described as above. The class given is binding. To be noted: flow cytometry; transfected 293α cells; antibody 20 nM.
Source text: as §1, §2
Consider B1, for which the “binding to EC2 deletion mutant” value is given as “bind”.
As for B2, the “binding to EC2 deletion mutant” value is “bind”.
In the case of B3, the “binding to EC2 deletion mutant” value is listed as “bind”.
In the case of B4, the “binding to EC2 deletion mutant” value is listed as “bind”.
